Experimental findings from PMC8125063 are described below.

Assay [1] addresses human Fbp2 L190G mutein (human). The assay is described as follows: SEC; HiLoad 16/600 Superdex 200 pg; 50 mM HEPES-NaOH pH 7.5, 150 mM KCl, 1 mM MgCl2, with or without 100 µM CoCl2 and/or 10 µM AMP; 0.5 mg protein loaded, 1 mL/min. (In gel filtration, larger molecules generally elute earlier.)
The target is the same in assay [2]. In words: native gel or EMSA; Native 9% PAGE; 200 mM Glycine-NaOH pH 9.0, 1 mM MgCl2, with or without 100 µM CoCl2 and/or 10 µM AMP in gel and running buffer; 3 h at 254 V.

Regarding human Fbp2 L190G mutein (enzyme), the stoichiometry N in assay [1] and in assay [2] was 2 each time.
